T1: Cft1 (S. cerevisiae, UniProt Q06632 1-1357)
T1 sequence (looked up): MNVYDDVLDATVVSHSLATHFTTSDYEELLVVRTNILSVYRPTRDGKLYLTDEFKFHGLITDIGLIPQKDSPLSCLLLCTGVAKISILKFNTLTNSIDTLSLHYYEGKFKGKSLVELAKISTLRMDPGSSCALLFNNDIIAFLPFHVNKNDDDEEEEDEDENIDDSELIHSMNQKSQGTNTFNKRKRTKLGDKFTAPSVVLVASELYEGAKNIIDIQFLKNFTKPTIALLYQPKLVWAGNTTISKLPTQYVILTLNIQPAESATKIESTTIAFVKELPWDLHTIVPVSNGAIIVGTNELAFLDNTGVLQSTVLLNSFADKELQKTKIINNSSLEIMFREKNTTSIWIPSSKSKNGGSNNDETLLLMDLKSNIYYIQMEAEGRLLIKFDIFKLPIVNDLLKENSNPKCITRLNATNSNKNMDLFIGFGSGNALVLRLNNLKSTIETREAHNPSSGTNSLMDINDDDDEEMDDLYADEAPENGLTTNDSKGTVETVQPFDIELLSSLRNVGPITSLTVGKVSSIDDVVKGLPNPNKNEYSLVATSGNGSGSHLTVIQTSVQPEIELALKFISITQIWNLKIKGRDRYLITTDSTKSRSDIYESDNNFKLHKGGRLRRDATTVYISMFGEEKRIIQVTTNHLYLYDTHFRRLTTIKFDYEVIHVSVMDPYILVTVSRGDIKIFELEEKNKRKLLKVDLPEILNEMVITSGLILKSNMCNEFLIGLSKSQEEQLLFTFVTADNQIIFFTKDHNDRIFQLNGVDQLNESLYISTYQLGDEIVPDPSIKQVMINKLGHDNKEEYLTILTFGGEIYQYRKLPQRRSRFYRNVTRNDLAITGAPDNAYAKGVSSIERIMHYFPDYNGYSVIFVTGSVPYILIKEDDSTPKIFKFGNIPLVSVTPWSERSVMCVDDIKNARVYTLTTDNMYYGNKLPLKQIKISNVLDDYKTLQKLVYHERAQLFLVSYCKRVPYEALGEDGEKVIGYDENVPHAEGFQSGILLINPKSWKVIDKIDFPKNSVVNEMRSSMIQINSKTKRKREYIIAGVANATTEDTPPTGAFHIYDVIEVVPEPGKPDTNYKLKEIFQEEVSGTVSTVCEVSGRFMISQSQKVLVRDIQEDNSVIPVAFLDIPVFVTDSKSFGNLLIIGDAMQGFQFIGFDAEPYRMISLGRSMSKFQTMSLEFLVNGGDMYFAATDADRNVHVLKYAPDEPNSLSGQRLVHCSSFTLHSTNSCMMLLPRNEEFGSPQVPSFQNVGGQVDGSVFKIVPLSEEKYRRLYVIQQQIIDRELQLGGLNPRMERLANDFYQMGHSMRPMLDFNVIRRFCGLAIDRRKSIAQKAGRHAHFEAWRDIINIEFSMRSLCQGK

B1: Cft2(S), residues 1-720 (domain or fragment, S. cerevisiae, UniProt Q12102 1-720, looked up)
chain: MTYKYNCCDDGSGTTVGSVVRFDNVTLLIDPGWNPSKVSYEQCIKYWEKVIPEIDVIILSQPTIECLGAHSLLYYNFTSHFISRIQVYATLPVINLGRVSTIDSYASAGVIGPYDTNKLDLEDIEISFDHIVPLKYSQLVDLRSRYDGLTLLAYNAGVCPGGSIWCISTYSEKLVYAKRWNHTRDNILNAASILDATGKPLSTLMRPSAIITTLDRFGSSQPFKKRSKIFKDTLKKGLSSDGSVIIPVDMSGKFLDLFTQVHELLFESTKINAHTQVPVLILSYARGRTLTYAKSMLEWLSPSLLKTWENRNNTSPFEIGSRIKIIAPNELSKYPGSKICFVSEVGALINEVIIKVGNSEKTTLILTKPSFECASSLDKILEIVEQDERNWKTFPEDGKSFLCDNYISIDTIKEEPLSKEETEAFKVQLKEKKRDRNKKILLVKRESKKLANGNAIIDDTNGERAMRNQDILVENVNGVPPIDHIMGGDEDDDEEEENDNLLNLLKDNSEKSAAKKNTEVPVDIIIQPSAASKHKMFPFNPAKIKKDDYGTVVDFTMFLPDDSDNVNQNSRKRPLKDGAKTTSPVNEEDNKNEEEDGYNMSDPISKRSKHRASRYSGFSGTGEAENFDNLDYLKIDKTLSKRTISTVNVQLKCSVVILNLQSLVDQRSASIIWPSLKSRKIVLSAPKQIQNEEITAKLIKKNIEVVNMPLNKIVEFSTTI
B2: Yth1 (natural protein, S. cerevisiae, UniProt Q06102 1-208, looked up)
chain: MSLIHPDTAKYPFKFEPFLRQEYSFSLDPDRPICEFYNSREGPKSCPRGPLCPKKHVLPIFQNKIVCRHWLRGLCKKNDQCEYLHEYNLRKMPECVFFSKNGYCTQSPDCQYLHIDPASKIPKCENYEMGFCPLGSSCPRRHIKKVFCQRYMTGFCPLGKDECDMEHPQFIIPDEGSKLRIKRDDEINTRKMDEEKERRLNAIINGEV
B3: Pfs2 with SII tag, as subunit of the purified polymerase module (natural protein, S. cerevisiae, UniProt P42841 1-465, looked up)
chain: MDGHNQNQYQNQNQIQQSQQPPLKKYVTQRRSVDVSSPYINLYYNRRHGLPNLVVEPETSYTIDIMPPNAYRGRDRVINLPSKFTHLSSNKVKHVIPAIQWTPEGRRLVVATYSGEFSLWNASSFTFETLMQAHDSAVTTMKYSHDSDWMISGDADGMIKIWQPNFSMVKEIDAAHTESIRDMAFSSNDSKFVTCSDDNILKIWNFSNGKQERVLSGHHWDVKSCDWHPEMGLIASASKDNLVKLWDPRSGNCISSILKFKHTVLKTRFQPTKGNLLMAISKDKSCRVFDIRYSMKELMCVRDETDYMTLEWHPINESMFTLACYDGSLKHFDLLQNLNEPILTIPYAHDKCITSLSYNPVGHIFATAAKDRTIRFWTRARPIDPNAYDDPTYNNKKINGWFFGINNDINAVREKSEFGAAPPPPATLEPHALPNMNGFINKKPRQEIPGIDSNIKSSTLPGLSI

What was measured:
Cft1 = biological target: T1, Cft1; assay: cryo-EM structure
Cft2(S), residues 1-720 [1] = biological target: B1; assay: cross-linking
Cft2(S), residues 1-720 [2] = biological target: B1; assay: cryo-EM structure

Binder: B1
- binding result (Cft1): binds

Binder: B2
- binding result (Cft2(S), residues 1-720 [1]): binds

Binder: B3
- binding result (Cft2(S), residues 1-720 [2]): binds
